Assay results reported in article PMC7528652, “Xrn1p acts at multiple steps in the budding-yeast RNAi pathway to enhance the efficiency of silencing”.

Target: T1, Ago1p (WT) (Naumovozyma castellii, UniProt D5SHI8 2-1299)
T1 sequence: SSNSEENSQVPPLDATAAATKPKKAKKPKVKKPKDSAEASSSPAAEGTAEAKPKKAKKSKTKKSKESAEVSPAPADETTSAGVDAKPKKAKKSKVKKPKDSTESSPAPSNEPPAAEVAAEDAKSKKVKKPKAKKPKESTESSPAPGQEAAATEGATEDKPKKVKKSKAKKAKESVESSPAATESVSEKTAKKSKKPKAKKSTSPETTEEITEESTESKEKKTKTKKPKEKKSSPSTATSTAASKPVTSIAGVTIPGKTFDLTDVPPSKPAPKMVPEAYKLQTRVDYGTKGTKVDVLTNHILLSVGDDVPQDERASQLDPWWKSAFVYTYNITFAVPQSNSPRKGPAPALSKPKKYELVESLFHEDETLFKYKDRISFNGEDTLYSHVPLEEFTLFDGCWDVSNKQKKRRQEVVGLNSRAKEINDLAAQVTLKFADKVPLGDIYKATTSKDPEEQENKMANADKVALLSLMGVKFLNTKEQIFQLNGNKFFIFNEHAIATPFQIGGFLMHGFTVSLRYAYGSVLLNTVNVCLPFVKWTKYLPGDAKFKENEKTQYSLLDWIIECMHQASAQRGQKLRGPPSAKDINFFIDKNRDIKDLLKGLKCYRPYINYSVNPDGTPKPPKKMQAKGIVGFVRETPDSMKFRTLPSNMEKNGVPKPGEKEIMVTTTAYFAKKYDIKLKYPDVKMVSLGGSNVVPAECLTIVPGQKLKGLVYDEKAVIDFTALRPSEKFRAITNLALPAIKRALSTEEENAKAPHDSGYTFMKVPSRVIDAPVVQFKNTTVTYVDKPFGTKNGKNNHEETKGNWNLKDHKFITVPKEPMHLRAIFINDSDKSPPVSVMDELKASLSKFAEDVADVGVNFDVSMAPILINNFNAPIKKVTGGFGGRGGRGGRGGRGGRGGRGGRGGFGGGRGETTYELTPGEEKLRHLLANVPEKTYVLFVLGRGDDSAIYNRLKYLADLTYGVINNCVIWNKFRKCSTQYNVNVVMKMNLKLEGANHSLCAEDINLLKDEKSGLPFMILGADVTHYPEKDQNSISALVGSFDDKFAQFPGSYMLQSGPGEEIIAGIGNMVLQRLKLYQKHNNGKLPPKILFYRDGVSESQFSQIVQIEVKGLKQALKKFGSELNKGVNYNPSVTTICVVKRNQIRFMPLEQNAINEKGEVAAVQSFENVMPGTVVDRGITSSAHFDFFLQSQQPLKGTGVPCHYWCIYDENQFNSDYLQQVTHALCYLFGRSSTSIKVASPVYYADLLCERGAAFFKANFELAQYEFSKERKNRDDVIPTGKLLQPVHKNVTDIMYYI
Test: filter binding (nitrocellulose-nylon); preincubated with 200 nM WT Xrn1p: bound siRNA enhanced; 50 mM Hepes pH 7.6, 300 mM potassium glutamate, 10 mM NaCl, 5 mM Mg acetate, 1 mM EGTA, 1 mM EDTA, 10% glycerol, 0.01% NP-40, 5 mM DTT, 30 C
Conditions: protein: recombinant; tags: N-terminal 3xFLAG-SUMO-TEV in expression construct; tag state after purification not in material; label: 32P 5' end of guide strand (S68); 21 bp, 2 nt 3' overhangs on both strands

B1: miR-20a siRNA duplex (dsRNA)
RNA 1: UAAAGUGCUUAUAGUGCAGGUAG
RNA 2: ACCUGCACUAUAAGCACUUUAAG
  binding result: binds
